Reference: patent US11872270B2, “A*03 restricted peptides for use in immunotherapy against cancers and related methods” (Immatics Biotechnologies GmbH, priority 2018, dated 2024)

Assays:
[1] = molecular target: HLA-A*03:01 (Homo sapiens, UniProt P04439); test: MHC binding assay (UV-ligand exchange, β2m ELISA); settings: binding to HLA-A*03:01, UV-ligand exchange, β2m ELISA
Summary of the method: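 Peptide-MHC complexes formed by UV-ligand exchange of a UV-cleavable peptide for the test peptide; exchange yield quantified by β2m ELISA. Streptavidin-coated capture, samples diluted 100-fold, 1 h at 37 °C, HRP anti-β2m detection, TMB read at 450 nm against HLA-A*02:01/MLA-001 monomer standards (15–500 ng/ml).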

[2] = test system: CD8+ T cells; test: In vitro T-cell priming assay (immunogenicity) with aAPCs loaded with peptide/MHC complexes and anti-CD28 antibody; assay type: cell-based, human; settings: in vitro immunogenicity, HLA-A*03 restricted peptides, Table 10b

“57 (RVLYRPQLEK; listed as Homo sapiens) [compound 57]” was tested, and the “Peptide exchange (MHC class I binding score, peptide exchange yield)” value (from here on “Peptide exchange”) [1] was “+++ (>50 = +++)” and the “Wells positive [%]” value [2] was ““+” (1-19% = +)”.

For “69 (GLSTILLYH; listed as Homo sapiens) [compound 69]”, the “Peptide exchange” value [1] was “++++ (>75% = ++++)” and the “Wells positive [%]” value [2] was ““+” (1-19% = +)”.

For “71 (VLYELGIIGNNK; listed as Homo sapiens) [compound 71]”, the “Peptide exchange” value [1] was “+++ (>50 = +++)” and the “Wells positive [%]” value [2] was ““+” (1-19% = +)”.

With “52 (GMYEYGSIEK; listed as Homo sapiens) [compound 52]” the “Peptide exchange” value [1] was “++++ (>75% = ++++)” and the “Wells positive [%]” value [2] was ““+” (1-19% = +)”.

For “81 (HLFLPFSYK; listed as Homo sapiens) [compound 81]”, the “Peptide exchange” value [1] was “++++ (>75% = ++++)” and the “Wells positive [%]” value [2] was ““+” (1-19% = +)”.
